Reference: patent US11976099B2, “Compositions and methods for treatment of bone associated diseases” (THE NATIONAL INSTITUTE FOR BIOTECHNOLOGY IN THE NEGEV LTD., priority 2016, dated 2024)
Several values for one entry are separate records, joined by “and”; a condition that tells them apart may be missing. Identical values can stand only once.

How the values were obtained:
[1] = test system: CTX-I (carboxy-terminal collagen crosslinks); experiment: CTX-I serum ELISA in ovariectomized mice (bone resorption); assay type: in vivo, C57 Rcc mice; parameters: CTX-I serum-concentration: unit not given here; conditions: 0.1 mg/kg
Protocol: In order to assess the effect of M-CSF variant on bone resorption, 10 weeks old C57 Rcc mice were ovariectomized resulting in a decrease in estrogen secretion similar to what occurs in osteoporosis. Two weeks post-surgery the mice were treated with M-CSF5.6 variant in three concentrations-0.1 mg/kg, 0.5 mg/kg and 15 mg/kg, in order to test the effect on bone resorption and to find the optimal dosage. For a period of 4 days, 0.1 and 0.5 mg/kg M-CSF5.6 treated mice received subcutaneous injections twice a day, while 15 mg/kg M-CSF5.6 treated mice received a daily subcutaneous injection. Mice were sacrificed 18-24 hours after the final injection. The amounts of type I collagen fragments in the blood were measured using CTX-I (carboxy-terminal collagen crosslinks) ELISA.
Animals were randomly divided into 2 control groups (SHAM, PBS) and 4 treatment groups (0.1, 0.5 and 15 mg/kg M-CSF5.6 and 0.1 mg/kg Alendronate as positive control). Except for the SHAM group, all animals were ovariectomized. *, ^, + represent a Haemolytic-serum sample, an unsuccessful ovariectomy procedure (as determined post mortem) and an outlier, respectively. CTX-I serum-concentration values of mice with unsuccessful ovariectomy were excluded from the analysis.

[2] = biological target: αvβ3 integrin (Homo sapiens, UniProt P05106+P06756); conditions: natural ligand and inhibitor; read-out: binding affinities of αvβ3 integrin; cited from earlier work
[3] = BS^3 chemical cross linking / SDS-PAGE dimerization assay; assay type: physicochemical
Protocol: Then, Tris was added to a final concentration of 30 mM and the mixture was incubated for 15 min at room temperature. Samples were denaturized and loaded on 15% SDS-PAGE. The gels were stained with coomassie blue (InstantBlue, Expedeon, CA, USA) and visualized with MiniBis pro (DNR Bio-Imaging Systems, Jerusalem, Israel).
BS^3 crosslinking assay—Human (4 μg) and murine M-CSFWT (1 μg), M-CSFC31S (1 μg) and M-CSFC31S,M27R (2.5 μg) were incubated with different concentrations of BS^3 [bis(sulfosuccinimidyl)suberate] (ThermoFisher Scientific, MA, USA) cross linker (0, 25 μM, 100 μM, 250 μM, 500 μM, 1000 μM and 2500 μM) for 30 min at room temperature. Then, […] was added to a final concentration of 30 mM, and the mixture was incubated for 15 min at room temperature. Samples were denaturized with sample buffer, boiled, and loaded on 15% SDS-PAGE for protein separation. The gels were stained with InstantBlue staining (Expedeon, CA, USA) for 40 min, followed by two washing steps with double distilled water. The gels were visualized with MiniBis pro (DNR Bio-Imaging Systems, Jerusalem, Israel).
Experiments were conducted in order to verify that the purified variants are incapable of dimerizing. The purified variants were incubated with a cross linker reagent (BS^3 [bis(sulfosuccinimidyl)suberate]) to enhance and visualize non-covalent intermolecular interactions. Following incubation, the reactions were stopped and the samples were loaded in denaturized conditions on a protein gel.
To validate the structural and computational analysis and to verify that M-CSFC31S,M27R is indeed a monomer, several biophysical assays were conducted. First, purified murine and human M-CSFWT, M-CSFC31S and M-CSFC31S,M27R were crosslinked via lysine residues using different amounts of BS^3 reagent [bis(sulfosuccinimidyl)suberate], and the proteins sizes were evaluated using SDS-PAGE (FIG. 16A). Murine M-CSFWT served as positive control, since it has a lysine in the dimerization site (K68), which facilitates the intermolecular cross-linking of the two monomers in the dimer. […] The dimer band became more prominent at higher BS^3 concentrations. It is likely that the non-covalent dimerization allows other lysines in M-CSFC31S to come into close proximity and crosslink.

[4] = biological target: human c-FMS (Homo sapiens, UniProt P07333); conditions: previously disclosed (Elegheert et al. 2012); read-out: KD of M-CSF to c-FMS receptor; cited from earlier work
[5] = test system: mature osteoclasts; experiment: Actin ring formation in mature osteoclasts; assay type: cell-based, mouse; conditions: inhibitors 5 μM added to mature osteoclasts for 24 h; F-actin staining
Protocol: FIG. 23 are example pictures showing Actin ring formation in mature osteoclasts incubated with M-CSFRGD variants. Murine BMMs were allowed to differentiate into osteoclasts in the presence of M-CSF and RANKL for 72 h. Then, the cells were incubated for additional 24 h without (positive control) or with inhibitors (5 μM) followed by fixation and staining for F-actin and nuclei. Cells were able to form a solid actin ring (white arrowheads), scattered actin ring (white arrows) or amorphous actin distribution (barbed arrowheads). Pictures are representatives of 35 images acquired from five different wells per sample.
For a mature osteoclast to resorb bone properly, it must form unique structure termed “sealing zone”; this structure consists of an actin ring made from a dense actin mesh connected by adhesion complexes called podosomes. The formation of the actin ring involves several stages: at the beginning, podosomes are formed throughout the cell in a scattered manner, then groups of podosomes form small actin structures named belts and upon osteoclast maturation, the belts are moving to the cell periphery, cluster, and form the actin ring. Podosomes contain high levels of αvβ3 integrin which is essential for the formation of a proper actin ring with condensed podosome network. […]

Chain of αvβ3 integrin (P06756 31-1048): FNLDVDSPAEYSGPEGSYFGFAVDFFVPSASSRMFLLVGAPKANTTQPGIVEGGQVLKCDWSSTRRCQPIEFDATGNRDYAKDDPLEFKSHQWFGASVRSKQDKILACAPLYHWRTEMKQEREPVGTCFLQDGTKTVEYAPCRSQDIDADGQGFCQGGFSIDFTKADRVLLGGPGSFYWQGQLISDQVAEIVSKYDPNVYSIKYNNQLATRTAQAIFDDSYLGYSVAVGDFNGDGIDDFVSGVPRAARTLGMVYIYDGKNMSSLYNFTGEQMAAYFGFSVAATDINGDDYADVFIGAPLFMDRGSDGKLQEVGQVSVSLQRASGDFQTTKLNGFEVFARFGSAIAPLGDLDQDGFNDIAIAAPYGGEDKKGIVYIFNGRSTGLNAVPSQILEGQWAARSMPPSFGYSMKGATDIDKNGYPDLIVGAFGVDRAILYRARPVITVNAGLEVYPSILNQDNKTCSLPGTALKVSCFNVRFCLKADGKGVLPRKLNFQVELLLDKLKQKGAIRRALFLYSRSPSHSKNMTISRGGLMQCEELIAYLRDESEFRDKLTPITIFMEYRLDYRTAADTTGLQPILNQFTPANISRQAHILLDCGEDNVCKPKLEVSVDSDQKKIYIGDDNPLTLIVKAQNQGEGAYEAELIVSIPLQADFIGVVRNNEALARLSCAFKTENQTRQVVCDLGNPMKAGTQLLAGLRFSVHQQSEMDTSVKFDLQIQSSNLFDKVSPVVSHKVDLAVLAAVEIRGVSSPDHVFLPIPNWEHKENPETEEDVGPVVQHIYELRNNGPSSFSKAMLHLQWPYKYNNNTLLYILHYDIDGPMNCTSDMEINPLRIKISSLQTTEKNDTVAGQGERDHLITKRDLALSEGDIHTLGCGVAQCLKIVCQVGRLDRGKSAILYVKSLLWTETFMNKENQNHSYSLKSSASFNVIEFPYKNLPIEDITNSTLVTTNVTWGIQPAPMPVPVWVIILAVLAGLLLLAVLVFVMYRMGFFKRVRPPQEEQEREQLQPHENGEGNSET
Chain of αvβ3 integrin (P05106 27-788): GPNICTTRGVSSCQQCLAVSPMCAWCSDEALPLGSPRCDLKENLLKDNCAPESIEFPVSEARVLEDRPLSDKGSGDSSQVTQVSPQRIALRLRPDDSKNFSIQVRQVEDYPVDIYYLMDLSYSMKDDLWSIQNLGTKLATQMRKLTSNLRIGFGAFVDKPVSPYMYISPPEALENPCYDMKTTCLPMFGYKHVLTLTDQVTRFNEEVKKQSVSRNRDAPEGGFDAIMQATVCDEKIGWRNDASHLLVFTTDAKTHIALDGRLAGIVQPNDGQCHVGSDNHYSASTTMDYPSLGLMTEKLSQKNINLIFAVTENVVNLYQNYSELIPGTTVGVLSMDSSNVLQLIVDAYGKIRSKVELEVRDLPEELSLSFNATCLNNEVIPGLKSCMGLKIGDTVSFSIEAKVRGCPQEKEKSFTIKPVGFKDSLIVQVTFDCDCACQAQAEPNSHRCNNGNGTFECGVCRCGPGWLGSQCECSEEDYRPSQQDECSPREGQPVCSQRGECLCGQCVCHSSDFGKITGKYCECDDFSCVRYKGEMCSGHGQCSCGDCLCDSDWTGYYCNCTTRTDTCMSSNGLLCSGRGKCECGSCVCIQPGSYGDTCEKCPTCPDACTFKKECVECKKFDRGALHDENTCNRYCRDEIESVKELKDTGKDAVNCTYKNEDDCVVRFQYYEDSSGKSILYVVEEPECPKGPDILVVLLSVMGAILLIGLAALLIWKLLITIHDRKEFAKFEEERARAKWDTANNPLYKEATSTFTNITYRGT
Chain of human c-FMS (P07333 20-972): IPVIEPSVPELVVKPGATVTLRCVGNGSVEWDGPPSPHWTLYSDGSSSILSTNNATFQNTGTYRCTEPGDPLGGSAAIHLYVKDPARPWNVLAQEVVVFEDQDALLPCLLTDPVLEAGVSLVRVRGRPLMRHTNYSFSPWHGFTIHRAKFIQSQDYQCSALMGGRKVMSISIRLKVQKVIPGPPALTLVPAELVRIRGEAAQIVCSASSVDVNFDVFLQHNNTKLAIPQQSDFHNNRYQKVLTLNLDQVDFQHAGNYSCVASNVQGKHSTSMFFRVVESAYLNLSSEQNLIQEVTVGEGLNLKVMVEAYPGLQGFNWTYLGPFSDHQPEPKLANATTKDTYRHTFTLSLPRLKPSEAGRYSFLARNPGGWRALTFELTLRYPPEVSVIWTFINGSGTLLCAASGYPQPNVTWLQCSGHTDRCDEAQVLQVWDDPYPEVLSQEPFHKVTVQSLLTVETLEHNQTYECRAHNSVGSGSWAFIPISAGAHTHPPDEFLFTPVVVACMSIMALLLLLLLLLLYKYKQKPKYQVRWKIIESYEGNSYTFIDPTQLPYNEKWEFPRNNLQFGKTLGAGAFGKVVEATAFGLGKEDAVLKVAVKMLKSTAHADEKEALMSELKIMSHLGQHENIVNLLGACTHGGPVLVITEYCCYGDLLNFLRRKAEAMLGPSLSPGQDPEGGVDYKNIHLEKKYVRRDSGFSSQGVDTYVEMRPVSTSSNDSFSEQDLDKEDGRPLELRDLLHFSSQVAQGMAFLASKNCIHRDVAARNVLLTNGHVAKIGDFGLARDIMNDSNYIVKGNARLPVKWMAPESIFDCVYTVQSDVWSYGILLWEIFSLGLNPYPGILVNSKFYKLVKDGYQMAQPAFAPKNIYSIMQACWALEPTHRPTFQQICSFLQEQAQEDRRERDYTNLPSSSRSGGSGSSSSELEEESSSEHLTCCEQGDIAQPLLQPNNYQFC

In the case of `NCCCC(O)(P(=O)(O)O)P(=O)(O)O` [Alendronate, reference compound], the “change in CTX-I levels compared to the PBS treated animals” value [1] is reported as “significant decrease in CTX-I levels” and the CTX-I serum-concentration ([1]; individual animals n 1-6, * haemolytic sample) is reported as 25.4 and 20.03* and 18.21* and 27.86* and 19.1 and 20.9.

For cRGDfV [reference compound], the Kd [2] is listed as 158 nM.

In the case of “vitronectin: one of the ligands of αvβ3 integrin”, the Kd [2] is given as 40.7 nM.

B1: murine M-CSFWT: wild-type murine M-CSF, positive control in cross-linking (protein)
chain: KEVSEHCSHMIGNGHLKVLQQLIDSQMETSCQIAFEFVDQEQLDDPVCYLKKAFFLVQDIIDETMRFKDNTPNANATERLQELSNNLNSCFTKDYEEQNKACVRTFHETPLQLLEKIKNFFNETKNLLEKDWNIFTKNCNNSFAKCSSRDVVTKPDCNCLYPKATPSSDPASASPHQPPAPSMAPLAGLAWDDSQRTEGSSLLPSELPLRIEDPGSAKQRPPR
In the case of B1, the “monomer/dimer bands after BS^3 cross linking” value ([3]; Example 11, BS^3 0-2500 μM, SDS-PAGE, FIG. 16A) is reported as “almost entirely in a band with a molecular weight that fits the dimer size”.

B2: M-CSF: native monocyte/macrophage colony stimulating factor, natural ligand of c-FMS (Uniprot P09603) (protein, UniProt P09603 33-554, looked up)
Macrophage colony-stimulating …: EEVSEYCSHMIGSGHLQSLQRLIDSQMETSCQITFEFVDQEQLKDPVCYLKKAFLLVQDIMEDTMRFRDNTPNAIAIVQLQELSLRLKSCFTKDYEEHDKACVRTFYETPLQLLEKVKNVFNETKNLLDKDWNIFSKNCNNSFAECSSQDVVTKPDCNCLYPKAIPSSDPASVSPHQPLAPSMAPVAGLTWEDSEGTEGSSLLPGEQPLHTVDPGSAKQRPPRSTCQSFEPPETPVVKDSTIGGSPQPRPSVGAFNPGMEDILDSAMGTNWVPEEASGEASEIPVPQGTELSPSRPGGGSMQTEPARPSNFLSASSPLPASAKGQQPADVTGTALPRVGPVRPTGQDWNHTPQKTDHPSALLRDPPEPGSPRISSLRPQGLSNPSTLSAQPQLSRSHSSGSVLPLGELEGRRSTRDRRSPAEPEGGPASEGAARPLPRFNSVPLTDTGHERQSEGSFSPQLQESVFHLLVPSVILVLLAVGGLLFYRWRRRSHQEPQRADSPLEQPEGSPLTQDDRQVELPV
In the case of B2, the Kd [4] is given as 13.6 nM.

B3: M-CSFαvβ3: variant 4.22 with histidine to alanine mutations at positions 9 and 15; binds αvβ3 integrin but not c-FMS (protein)
chain: EEVSEYCSAMIGSGALQSLQRLIDQTSRGDSPSITFEFVDQEQLKDPVCYLKKAFLLVQDIMEDTMRFRDNTPNAIAIVQLQELSLRLKSCFTKDYEEHDKACVRTFYETPLQLLEKVKNVFNETKNLLDKDWNIFSKNCNNSFAECSSQGHERQSEGS
modifications: left off: small tags and cut ends
With B3 the actin ring formation [5] was “decreased the condensation and density of podosomes” and the “dimerization after BS^3 cross linking” value ([3]; Example 4, BS^3 up to 2500 μM, FIG. 8) was “did not show any dimerization”.
